The values below come from patent US9708375 (Amgen, dated 2017).

This experiment concerns the target T1, biotin labeled human recombinant Sclerostin (human, UniProt Q9BQB4 24-213).
T1 construct: also called human Sclerostin; huSOST
T1 sequence (looked up): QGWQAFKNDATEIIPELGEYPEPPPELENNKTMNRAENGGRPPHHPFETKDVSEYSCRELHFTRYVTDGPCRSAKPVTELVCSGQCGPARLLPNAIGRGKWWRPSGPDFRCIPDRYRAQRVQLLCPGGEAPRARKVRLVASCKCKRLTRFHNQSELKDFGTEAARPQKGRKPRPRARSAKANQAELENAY
Put plainly: AlphaScreen Sclerostin/LRP-6 inhibition.

B1: P7080 (bispecific antibody, human IgG2, lambda)
light: YVLTQPPSVSVAPGQTARITCGGNNIGSKSVHWYQQKPGQAPVLVVYDDSDRPSEIPERFSGSNSGNTATLTISRVEAGDEADYYCQVWDSSSDHVVFGGGTRLTVLGQPKAAPSVTLFPPSSEELQANKATLVCLISDFYPGAVTVAWKADSSPVKAGVETTTPSKQSNNKYAASSYLSLTPEQWKSHRSYSCQVTHEGSTVEKTVAPTECSSSGGSCPAYTEFLCKDSDRCFPSEWRCDGEMDCVDGSDELHCAYHTCAPNQFRCNSYDKCVPAHWVCDGVLDCLDSSDETNCSAPASEPPGSLSLQ
heavy: QVQLVESGGGVVQPGRSLRLSCAASGFTFSRYDMHWVRQAPGKGLEWVAIIFYDGSNKYYADPVKGRFTISRDNSKNTLYLQMNSLRAEDTAVYYCATLAAAFDYWGQGTLVTVSSASTKGPSVFPLAPCSRSTSESTAALGCLVKDYFPEPVTVSWNSGALTSGVHTFPAVLQSSGLYSLSSVVTVPSSNFGTQTYTCNVDHKPSNTKVDKTVERKCCVECPPCPAPPVAGPSVFLFPPKPKDTLMISRTPEVTCVVVDVSHEDPEVQFNWYVDGVEVHNAKTKPREEQFNSTFRVVSVLTVVHQDWLNGKEYKCKVSNKGLPAPIEKTISKTKGQPREPQVYTLPPSREEMTKNQVSLTCLVKGFYPSDIAVEWESNGQPENNYKTTPPMLDSDGSFFLYSKLTVDKSRWQQGNVFSCSVMHEALHNHYTQKSLSLSPGK
notes: also called P7009; Ab-Avimer-7 (P7080A)
With B1, the binding result is “binds”.

B2: P7652 (bispecific antibody, human IgG2, lambda)
light: YVLTQPPSVSVAPGQTARITCGGNNIGSKSVHWYQQKPGQAPVLVVYDDSDRPSEIPERFSGSNSGNTATLTISRVEAGDEADYYCQVWDSSSDHVVFGGGTRLTVLGQPKAAPSVTLFPPSSEELQANKATLVCLISDFYPGAVTVAWKADSSPVKAGVETTTPSKQSNNKYAASSYLSLTPEQWKSHRSYSCQVTHEGSTVEKTVAPTECSSSGGSCPAYTEFLCADSDRCFPSEWRCDGEMDCVDGSDELHCAYHTCAPNQFRCNSYDKCVPAHWVCDGVLDCLDSSDETNCSAPASEPPGSLSLQ
heavy: QVQLVESGGGVVQPGRSLRLSCAASGFTFSRYDMHWVRQAPGKGLEWVAIIFYDGSNKYYADPVKGRFTISRDNSKNTLYLQMNSLRAEDTAVYYCATLAAAFDYWGQGTLVTVSSASTKGPSVFPLAPCSRSTSESTAALGCLVKDYFPEPVTVSWNSGALTSGVHTFPAVLQSSGLYSLSSVVTVPSSNFGTQTYTCNVDHKPSNTKVDKTVERKCCVECPPCPAPPVAGPSVFLFPPKPKDTLMISRTPEVTCVVVDVSHEDPEVQFNWYVDGVEVHNAKTKPREEQFNSTFRVVSVLTVVHQDWLNGKEYKCKVSNKGLPAPIEKTISKTKGQPREPQVYTLPPSREEMTKNQVSLTCLVKGFYPSDIAVEWESNGQPENNYKTTPPMLDSDGSFFLYSKLTVDKSRWQQGNVFSCSVMHEALHNHYTQKSLSLSPGK
notes: also called C140162
Turning to B2, the binding result was “binds”.

B3: P7068 (bispecific antibody, human IgG2, lambda)
heavy: SGGSCPAYTEFLCKDSDRCFPSEWRCDGEMDCVDGSDELHCAYHTCAPNQFRCNSYDKCVPAHWVCDGVLDCLDSSDETNCSAPASEPPGSLSQVQLVESGGGVVQPGRSLRLSCAASGFTFSRYDMHWVRQAPGKGLEWVAIIFYDGSNKYYADPVKGRFTISRDNSKNTLYLQMNSLRAEDTAVYYCATLAAAFDYWGQGTLVTVSSASTKGPSVFPLAPCSRSTSESTAALGCLVKDYFPEPVTVSWNSGALTSGVHTFPAVLQSSGLYSLSSVVTVPSSNFGTQTYTCNVDHKPSNTKVDKTVERKCCVECPPCPAPPVAGPSVFLFPPKPKDTLMISRTPEVTCVVVDVSHEDPEVQFNWYVDGVEVHNAKTKPREEQFNSTFRVVSVLTVVHQDWLNGKEYKCKVSNKGLPAPIEKTISKTKGQPREPQVYTLPPSREEMTKNQVSLTCLVKGFYPSDIAVEWESNGQPENNYKTTPPMLDSDGSFFLYSKLTVDKSRWQQGNVFSCSVMHEALHNHYTQKSLSLSPGK
light: YVLTQPPSVSVAPGQTARITCGGNNIGSKSVHWYQQKPGQAPVLVVYDDSDRPSEIPERFSGSNSGNTATLTISRVEAGDEADYYCQVWDSSSDHVVFGGGTRLTVLGQPKAAPSVTLFPPSSEELQANKATLVCLISDFYPGAVTVAWKADSSPVKAGVETTTPSKQSNNKYAASSYLSLTPEQWKSHRSYSCQVTHEGSTVEKTVAPTECS
notes: also called P7011; Ab-Avimer-1 (P7068A)
For the molecule B3, the binding result is given as “binds”.

B4: P7079 (bispecific antibody, human IgG2, lambda)
heavy: QVQLVESGGGVVQPGRSLRLSCAASGFTFSRYDMHWVRQAPGKGLEWVAIIFYDGSNKYYADPVKGRFTISRDNSKNTLYLQMNSLRAEDTAVYYCATLAAAFDYWGQGTLVTVSSASTKGPSVFPLAPCSRSTSESTAALGCLVKDYFPEPVTVSWNSGALTSGVHTFPAVLQSSGLYSLSSVVTVPSSNFGTQTYTCNVDHKPSNTKVDKTVERKCCVECPPCPAPPVAGPSVFLFPPKPKDTLMISRTPEVTCVVVDVSHEDPEVQFNWYVDGVEVHNAKTKPREEQFNSTFRVVSVLTVVHQDWLNGKEYKCKVSNKGLPAPIEKTISKTKGQPREPQVYTLPPSREEMTKNQVSLTCLVKGFYPSDIAVEWESNGQPENNYKTTPPMLDSDGSFFLYSKLTVDKSRWQQGNVFSCSVMHEALHNHYTQKSLSLSPGKSSGGSCAPNQFRCNSYDKCVPAHWVCDGVLDCLDSSDETNCSAPASEPPGSLCPAYTEFLCKDSDRCFPSEWRCDGEMDCVDGSDELHCAYHTSLQ
light: YVLTQPPSVSVAPGQTARITCGGNNIGSKSVHWYQQKPGQAPVLVVYDDSDRPSEIPERFSGSNSGNTATLTISRVEAGDEADYYCQVWDSSSDHVVFGGGTRLTVLGQPKAAPSVTLFPPSSEELQANKATLVCLISDFYPGAVTVAWKADSSPVKAGVETTTPSKQSNNKYAASSYLSLTPEQWKSHRSYSCQVTHEGSTVEKTVAPTECS
notes: also called P6887; Ab-Avimer-6 (P7079A)
With B4, the binding result is “binds”.

B5: P7077 (bispecific antibody, human IgG2, lambda)
heavy: QVQLVESGGGVVQPGRSLRLSCAASGFTFSRYDMHWVRQAPGKGLEWVAIIFYDGSNKYYADPVKGRFTISRDNSKNTLYLQMNSLRAEDTAVYYCATLAAAFDYWGQGTLVTVSSASTKGPSVFPLAPCSRSTSESTAALGCLVKDYFPEPVTVSWNSGALTSGVHTFPAVLQSSGLYSLSSVVTVPSSNFGTQTYTCNVDHKPSNTKVDKTVERKCCVECPPCPAPPVAGPSVFLFPPKPKDTLMISRTPEVTCVVVDVSHEDPEVQFNWYVDGVEVHNAKTKPREEQFNSTFRVVSVLTVVHQDWLNGKEYKCKVSNKGLPAPIEKTISKTKGQPREPQVYTLPPSREEMTKNQVSLTCLVKGFYPSDIAVEWESNGQPENNYKTTPPMLDSDGSFFLYSKLTVDKSRWQQGNVFSCSVMHEALHNHYTQKSLSLSPGKSSGGSCGRDHFRCRSYDKCVPAHWLCDGVLDCLDSSDETYCSAPASEPPGSLCPAYTEFLCKDSDRCFPSEWRCDGEMDCVDGSDELHCAYHTSLQ
light: YVLTQPPSVSVAPGQTARITCGGNNIGSKSVHWYQQKPGQAPVLVVYDDSDRPSEIPERFSGSNSGNTATLTISRVEAGDEADYYCQVWDSSSDHVVFGGGTRLTVLGQPKAAPSVTLFPPSSEELQANKATLVCLISDFYPGAVTVAWKADSSPVKAGVETTTPSKQSNNKYAASSYLSLTPEQWKSHRSYSCQVTHEGSTVEKTVAPTECS
notes: also called P6888; Ab-Avimer-4 (P7077A)
For B5, the binding result is given as “binds”.

B6: P7651 (bispecific antibody, human IgG2, lambda)
heavy: QVQLVESGGGVVQPGRSLRLSCAASGFTFSRYDMHWVRQAPGKGLEWVAIIFYDGSNKYYADPVKGRFTISRDNSKNTLYLQMNSLRAEDTAVYYCATLAAAFDYWGQGTLVTVSSASTKGPSVFPLAPCSRSTSESTAALGCLVKDYFPEPVTVSWNSGALTSGVHTFPAVLQSSGLYSLSSVVTVPSSNFGTQTYTCNVDHKPSNTKVDKTVERKCCVECPPCPAPPVAGPSVFLFPPKPKDTLMISRTPEVTCVVVDVSHEDPEVQFNWYVDGVEVHNAKTKPREEQFNSTFRVVSVLTVVHQDWLNGKEYKCKVSNKGLPAPIEKTISKTKGQPREPQVYTLPPSREEMTKNQVSLTCLVKGFYPSDIAVEWESNGQPENNYKTTPPMLDSDGSFFLYSKLTVDKSRWQQGNVFSCSVMHEALHNHYTQKSLSLSPGKSSGGSCAPNQFRCNSYDKCVPAHWVCDGVLDCLDSSDETNCSAPASEPPGSLCPAYTEFLCADSDRCFPSEWRCDGEMDCVDGSDELHCAYHTSLQ
light: YVLTQPPSVSVAPGQTARITCGGNNIGSKSVHWYQQKPGQAPVLVVYDDSDRPSEIPERFSGSNSGNTATLTISRVEAGDEADYYCQVWDSSSDHVVFGGGTRLTVLGQPKAAPSVTLFPPSSEELQANKATLVCLISDFYPGAVTVAWKADSSPVKAGVETTTPSKQSNNKYAASSYLSLTPEQWKSHRSYSCQVTHEGSTVEKTVAPTECS
notes: also called C140161
On to B6, for which the binding result was “binds”.

B7: P7653 (bispecific antibody, human IgG2, lambda)
heavy: SGGSCPAYTEFLCADSDACFPSEWACDGEMDCVDGSDELHCAYHTCAPNQFACNSYDACVPAHWVCDGVLDCLDSSDETNCSAPASEPPGSLSQVQLVESGGGVVQPGRSLRLSCAASGFTFSRYDMHWVRQAPGKGLEWVAIIFYDGSNKYYADPVKGRFTISRDNSKNTLYLQMNSLRAEDTAVYYCATLAAAFDYWGQGTLVTVSSASTKGPSVFPLAPCSRSTSESTAALGCLVKDYFPEPVTVSWNSGALTSGVHTFPAVLQSSGLYSLSSVVTVPSSNFGTQTYTCNVDHKPSNTKVDKTVERKCCVECPPCPAPPVAGPSVFLFPPKPKDTLMISRTPEVTCVVVDVSHEDPEVQFNWYVDGVEVHNAKTKPREEQFNSTFRVVSVLTVVHQDWLNGKEYKCKVSNKGLPAPIEKTISKTKGQPREPQVYTLPPSREEMTKNQVSLTCLVKGFYPSDIAVEWESNGQPENNYKTTPPMLDSDGSFFLYSKLTVDKSRWQQGNVFSCSVMHEALHNHYTQKSLSLSPGK
light: YVLTQPPSVSVAPGQTARITCGGNNIGSKSVHWYQQKPGQAPVLVVYDDSDRPSEIPERFSGSNSGNTATLTISRVEAGDEADYYCQVWDSSSDHVVFGGGTRLTVLGQPKAAPSVTLFPPSSEELQANKATLVCLISDFYPGAVTVAWKADSSPVKAGVETTTPSKQSNNKYAASSYLSLTPEQWKSHRSYSCQVTHEGSTVEKTVAPTECS
notes: also called C140163
In the case of B7, the binding result is recorded as “binds”.
